The results in this text go back to paper PMC5360526 (Hepatology (Baltimore, Md.), 2017).

For the assay, the target named is Recombinant human MATα1 (human, UniProt Q00266 1-395). Nature of the assay: pull-down.
Sequence of Recombinant human MATα1 (Q00266 whole entry): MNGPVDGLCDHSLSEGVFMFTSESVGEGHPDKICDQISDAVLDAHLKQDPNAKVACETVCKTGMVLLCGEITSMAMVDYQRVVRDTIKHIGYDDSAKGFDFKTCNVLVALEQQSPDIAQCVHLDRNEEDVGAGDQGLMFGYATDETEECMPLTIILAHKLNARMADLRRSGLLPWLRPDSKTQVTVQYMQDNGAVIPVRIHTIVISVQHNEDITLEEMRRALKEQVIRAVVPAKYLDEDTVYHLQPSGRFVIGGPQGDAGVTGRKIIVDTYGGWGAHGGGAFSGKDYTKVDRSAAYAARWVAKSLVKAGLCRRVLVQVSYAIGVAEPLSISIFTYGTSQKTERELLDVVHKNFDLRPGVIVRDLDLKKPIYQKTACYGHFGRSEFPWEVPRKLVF

B1: Recombinant human PHB1 (natural protein, UniProt P35232 1-272, looked up)
chain: MAAKVFESIGKFGLALAVAGGVVNSALYNVDAGHRAVIFDRFRGVQDIVVGEGTHFLIPWVQKPIIFDCRSRPRNVPVITGSKDLQNVNITLRILFRPVASQLPRIFTSIGEDYDERVLPSITTEILKSVVARFDAGELITQRELVSRQVSDDLTERAATFGLILDDVSLTHLTFGKEFTEAVEAKQVAQQEAERARFVVEKAEQQKKAAIISAEGDSKAAELIANSLATAGDGLIELRKLEAAEDIAYQLSRSRNITYLPAGQSVLLQLPQ
Turning to B1, the binding result was “binds”.
